B1: Peroxisomal bifunctional enzyme (Homo sapiens), Q08426 (parent)
chain: MAEYTRLHNALALIRLRNPPVNAISTTLLRDIKEGLQKAVIDHTIKAIVICGAEGKFSAGADIRGFSAPRTFGLTLGHVVDEIQRNEKPVVAAIQGMAFGGGLELALGCHYRIAHAEAQVGLPEVTLGLLPGARGTQLLPRLTGVPAALDLITSGRRILADEALKLGILDKVVNSDPVEEAIRFAQRVSDQPLESRRLCNKPIQSLPNMDSIFSEALLKMRRQHPGCLAQEACVRAVQAAVQYPYEVGIKKEEELFLYLLQSGQARALQYAFFAERKANKWSTPSGASWKTASARPVSSVGVVGLGTMGRGIVISFARARIPVIAVDSDKNQLATANKMITSVLEKEASKMQQSGHPWSGPKPRLTSSVKELGGVDLVIEAVFEEMSLKKQVFAELSAVCKPEAFLCTNTSALDVDEIASSTDRPHLVIGTHFFSPAHVMKLLEVIPSQYSSPTTIATVMNLSKKIKKIGVVVGNCFGFVGNRMLNPYYNQAYFLLEEGSKPEEVDQVLEEFGFKMGPFRVSDLAGLDVGWKSRKGQGLTGPTLLPGTPARKRGNRRYCPIPDVLCELGRFGQKTGKGWYQYDKPLGRIHKPDPWLSKFLSRYRKTHHIEPRTISQDEILERCLYSLINEAFRILGEGIAASPEHIDVVYLHGYGWPRHKGGPMFYASTVGLPTVLEKLQKYYRQNPDIPQLEPSDYLKKLASQGNPPLKEWQSLAGSPSSKL
partner: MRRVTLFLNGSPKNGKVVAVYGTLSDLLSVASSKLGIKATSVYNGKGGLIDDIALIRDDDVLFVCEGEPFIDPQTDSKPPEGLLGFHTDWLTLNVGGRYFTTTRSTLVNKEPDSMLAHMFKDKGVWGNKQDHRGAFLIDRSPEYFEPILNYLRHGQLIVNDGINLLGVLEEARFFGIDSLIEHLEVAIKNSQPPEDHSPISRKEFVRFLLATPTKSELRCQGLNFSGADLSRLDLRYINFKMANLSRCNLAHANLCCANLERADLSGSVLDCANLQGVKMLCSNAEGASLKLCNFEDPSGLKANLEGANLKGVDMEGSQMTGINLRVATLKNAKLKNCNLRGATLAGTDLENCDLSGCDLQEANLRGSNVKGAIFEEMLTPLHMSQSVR
B2: Glutathione S-transferase A2 (Homo sapiens), P09210 (parent)
chain: MAEKPKLHYSNIRGRMESIRWLLAAAGVEFEEKFIKSAEDLDKLRNDGYLMFQQVPMVEIDGMKLVQTRAILNYIASKYNLYGKDIKEKALIDMYIEGIADLGEMILLLPFSQPEEQDAKLALIQEKTKNRYFPAFEKVLKSHGQDYLVGNKLSRADIHLVELLYYVEELDSSLISSFPLLKALKTRISNLPTVKKFLQPGSPRKPPMDEKSLEESRKIFRF
partner: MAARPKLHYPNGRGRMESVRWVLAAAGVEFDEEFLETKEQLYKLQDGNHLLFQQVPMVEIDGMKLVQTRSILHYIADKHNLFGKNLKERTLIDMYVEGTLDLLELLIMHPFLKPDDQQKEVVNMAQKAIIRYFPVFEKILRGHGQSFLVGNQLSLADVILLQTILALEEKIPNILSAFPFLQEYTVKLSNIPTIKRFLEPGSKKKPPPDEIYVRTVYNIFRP
B3: Septin-12 (Homo sapiens), Q8IYM1 (parent)
chain: MDPLRRSPSPCLSSQPSSPSTPPCEMLGPVGIEAVLDQLKIKAMKMGFEFNIMVVGQSGLGKSTMVNTLFKSKVWKSNPPGLGVPTPQTLQLHSLTHVIEEKGVKLKLTVTDTPGFGDQINNDNCWDPILGYINEQYEQYLQEEILITRQRHIPDTRVHCCVYFVPPTGHCLRPLDIEFLQRLCRTVNVVPVIARADSLTMEEREAFRRRIQQNLRTHCIDVYPQMCFDEDINDKILNSKLRDRIPFAVVGADQEHLVNGRCVLGRKTKWGIIEVENMAHCEFPLLRDLLIRSHLQDLKDITHNIHYENYRVIRLNESHLLPRGPGWVNLAPASPGQLTTPRTFKVCRGAHDDSDDEF
partner: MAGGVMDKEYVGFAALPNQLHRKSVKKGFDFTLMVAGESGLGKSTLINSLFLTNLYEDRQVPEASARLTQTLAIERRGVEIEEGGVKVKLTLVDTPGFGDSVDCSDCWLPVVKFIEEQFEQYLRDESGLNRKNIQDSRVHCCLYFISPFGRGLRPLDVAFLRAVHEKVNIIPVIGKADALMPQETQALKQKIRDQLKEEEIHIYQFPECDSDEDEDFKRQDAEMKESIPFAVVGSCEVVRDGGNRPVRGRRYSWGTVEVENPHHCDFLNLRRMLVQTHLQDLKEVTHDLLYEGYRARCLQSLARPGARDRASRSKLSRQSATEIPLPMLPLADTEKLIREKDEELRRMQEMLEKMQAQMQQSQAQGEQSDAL
B4: Cytochrome P450 4F12 (Homo sapiens), Q9HCS2 (parent)
chain: MSLLSLPWLGLRPVATSPWLLLLLVVGSWLLARILAWTYAFYNNCRRLQCFPQPPKRNWFWGHLGLITPTEEGLKNSTQMSATYSQGFTVWLGPIIPFIVLCHPDTIRSITNASAAIAPKDNLFIRFLKPWLGEGILLSGGDKWSRHRRMLTPAFHFNILKSYITIFNKSANIMLDKWQHLASEGSSRLDMFEHISLMTLDSLQKCIFSFDSHCQERPSEYIATILELSALVEKRSQHILQHMDFLYYLSHDGRRFHRACRLVHDFTDAVIRERRRTLPTQGIDDFFKDKAKSKTLDFIDVLLLSKDEDGKALSDEDIRAEADTFMFGGHDTTASGLSWVLYNLARHPEYQERCRQEVQELLKDRDPKEIEWDDLAQLPFLTMCVKESLRLHPPAPFISRCCTQDIVLPDGRVIPKGITCLIDIIGVHHNPTVWPDPEVYDPFRFDPENSKGRSPLAFIPFSAGPRNCIGQAFAMAEMKVVLALMLLHFRFLPDHTEPRRKLELIMRAEGGLWLRVEPLNVSLQ
partner: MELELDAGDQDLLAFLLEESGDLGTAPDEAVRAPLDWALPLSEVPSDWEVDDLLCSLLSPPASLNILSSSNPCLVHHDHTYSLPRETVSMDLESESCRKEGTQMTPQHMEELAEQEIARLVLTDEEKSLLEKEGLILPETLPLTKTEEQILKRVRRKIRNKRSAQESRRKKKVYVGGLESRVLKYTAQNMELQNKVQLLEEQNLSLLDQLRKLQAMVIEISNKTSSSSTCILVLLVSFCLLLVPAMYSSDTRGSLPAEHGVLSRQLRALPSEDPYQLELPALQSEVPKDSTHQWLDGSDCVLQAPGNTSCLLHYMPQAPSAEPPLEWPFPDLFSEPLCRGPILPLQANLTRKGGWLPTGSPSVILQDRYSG
B5: WASH complex subunit 3 (Homo sapiens), Q9Y3C0 (parent)
chain: MDEDGLPLMGSGIDLTKVPAIQQKRTVAFLNQFVVHTVQFLNRFSTVCEEKLADLSLRIQQIETTLNILDAKLSSIPGLDDVTVEVSPLNVTSVTNGAHPEATSEQPQQNSTQDSGLQESEVSAENILTVAKDPRYARYLKMVQVGVPVMAIRNKMISEGLDPDLLERPDAPVPDGESEKTVEESSDSESSFSD

Variants of: B1
Conditions: with kctd9_human KCTD9, Q7L273

Row | Variant | effect of a mutation on the interaction
1 | S703F | with no effect
2 | L715S | disrupting interaction strength

Variants of: B2
Conditions: with gsta4_human GSTA4, O15217

Row | Variant | effect of a mutation on the interaction
3 | E210A | with no effect

Variants of: B3
Conditions: with sept1_human SEPTIN1, Q8WYJ6

Row | Variant | effect of a mutation on the interaction
4 | Q213R | disrupting interaction strength
5 | R311C | disrupting interaction strength
6 | V222I | disrupting interaction strength
7 | V263D | disrupting interaction strength
8 | C184S | with no effect
9 | K73N | disrupting interaction strength
10 | R204Q | disrupting interaction strength
11 | V162M | disrupting interaction strength
12 | T111K | disrupting interaction strength
13 | T111M | disrupting interaction strength

Variants of: B3
Conditions: with sept1_human SEPTIN1, Q8WYJ6
Remark: another data set of the same source

Row | Variant | effect of a mutation on the interaction
14 | G169E | disrupting interaction strength
15 | D197N | disrupting interaction strength

Variants of: B4
Conditions: with creb3_human CREB3, O43889

Row | Variant | effect of a mutation on the interaction
16 | R254W | disrupting interaction strength
17 | R272Q | with no effect

Variants of: B5
Conditions: with optn_human OPTN

Row | Variant | effect of a mutation on the interaction
18 | F44L | with no effect

Variants of: B5
Conditions: with ift20_human IFT20, Q8IY31
Sequence of ift20_human IFT20, Q8IY31 (Q8IY31 whole entry): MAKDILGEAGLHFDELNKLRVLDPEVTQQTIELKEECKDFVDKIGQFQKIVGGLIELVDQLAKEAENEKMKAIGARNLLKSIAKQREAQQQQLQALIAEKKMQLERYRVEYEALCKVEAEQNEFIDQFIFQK

Row | Variant | effect of a mutation on the interaction
19 | F44L | with no effect

Variants of: B5
Conditions: with abi2_human ABI2, Q9NYB9
Sequence of abi2_human ABI2, Q9NYB9 (Q9NYB9 whole entry): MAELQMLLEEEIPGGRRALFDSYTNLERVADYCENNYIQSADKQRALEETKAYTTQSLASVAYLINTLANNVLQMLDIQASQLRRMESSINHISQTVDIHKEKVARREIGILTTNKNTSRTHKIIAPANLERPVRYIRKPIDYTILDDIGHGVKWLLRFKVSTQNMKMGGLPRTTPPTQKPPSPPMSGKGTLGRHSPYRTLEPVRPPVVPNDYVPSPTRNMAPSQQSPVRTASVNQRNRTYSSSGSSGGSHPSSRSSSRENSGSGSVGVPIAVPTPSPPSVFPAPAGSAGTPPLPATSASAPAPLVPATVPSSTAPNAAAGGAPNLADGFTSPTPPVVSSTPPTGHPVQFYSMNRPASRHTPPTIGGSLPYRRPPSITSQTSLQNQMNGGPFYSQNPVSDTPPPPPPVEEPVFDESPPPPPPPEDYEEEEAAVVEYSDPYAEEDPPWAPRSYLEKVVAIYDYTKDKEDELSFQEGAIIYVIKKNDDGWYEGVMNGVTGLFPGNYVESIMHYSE

Row | Variant | effect of a mutation on the interaction
20 | F44L | disrupting interaction strength

Variants of: B5
Conditions: with ndc80_human NDC80, O14777
Sequence of ndc80_human NDC80, O14777 (O14777 whole entry): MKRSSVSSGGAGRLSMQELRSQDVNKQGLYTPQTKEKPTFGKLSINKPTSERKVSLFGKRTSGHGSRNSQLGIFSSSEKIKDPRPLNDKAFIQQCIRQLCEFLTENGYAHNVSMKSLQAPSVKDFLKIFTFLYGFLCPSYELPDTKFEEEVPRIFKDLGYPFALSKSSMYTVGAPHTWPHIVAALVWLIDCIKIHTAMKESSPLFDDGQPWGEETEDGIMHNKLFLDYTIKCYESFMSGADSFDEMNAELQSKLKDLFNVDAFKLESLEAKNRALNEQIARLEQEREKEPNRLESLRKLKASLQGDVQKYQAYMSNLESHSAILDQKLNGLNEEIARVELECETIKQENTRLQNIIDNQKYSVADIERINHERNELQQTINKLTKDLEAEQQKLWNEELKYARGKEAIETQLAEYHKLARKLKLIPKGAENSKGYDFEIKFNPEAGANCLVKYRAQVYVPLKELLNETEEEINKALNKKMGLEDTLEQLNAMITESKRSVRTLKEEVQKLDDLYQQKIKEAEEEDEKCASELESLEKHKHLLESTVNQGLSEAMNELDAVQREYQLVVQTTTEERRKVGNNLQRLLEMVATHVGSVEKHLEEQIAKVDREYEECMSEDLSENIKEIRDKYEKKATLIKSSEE

Row | Variant | effect of a mutation on the interaction
21 | F44L | with no effect

Variants of: B5
Conditions: with pcm1_human PCM1, Q15154
Sequence of pcm1_human PCM1, Q15154 (Q15154 whole entry): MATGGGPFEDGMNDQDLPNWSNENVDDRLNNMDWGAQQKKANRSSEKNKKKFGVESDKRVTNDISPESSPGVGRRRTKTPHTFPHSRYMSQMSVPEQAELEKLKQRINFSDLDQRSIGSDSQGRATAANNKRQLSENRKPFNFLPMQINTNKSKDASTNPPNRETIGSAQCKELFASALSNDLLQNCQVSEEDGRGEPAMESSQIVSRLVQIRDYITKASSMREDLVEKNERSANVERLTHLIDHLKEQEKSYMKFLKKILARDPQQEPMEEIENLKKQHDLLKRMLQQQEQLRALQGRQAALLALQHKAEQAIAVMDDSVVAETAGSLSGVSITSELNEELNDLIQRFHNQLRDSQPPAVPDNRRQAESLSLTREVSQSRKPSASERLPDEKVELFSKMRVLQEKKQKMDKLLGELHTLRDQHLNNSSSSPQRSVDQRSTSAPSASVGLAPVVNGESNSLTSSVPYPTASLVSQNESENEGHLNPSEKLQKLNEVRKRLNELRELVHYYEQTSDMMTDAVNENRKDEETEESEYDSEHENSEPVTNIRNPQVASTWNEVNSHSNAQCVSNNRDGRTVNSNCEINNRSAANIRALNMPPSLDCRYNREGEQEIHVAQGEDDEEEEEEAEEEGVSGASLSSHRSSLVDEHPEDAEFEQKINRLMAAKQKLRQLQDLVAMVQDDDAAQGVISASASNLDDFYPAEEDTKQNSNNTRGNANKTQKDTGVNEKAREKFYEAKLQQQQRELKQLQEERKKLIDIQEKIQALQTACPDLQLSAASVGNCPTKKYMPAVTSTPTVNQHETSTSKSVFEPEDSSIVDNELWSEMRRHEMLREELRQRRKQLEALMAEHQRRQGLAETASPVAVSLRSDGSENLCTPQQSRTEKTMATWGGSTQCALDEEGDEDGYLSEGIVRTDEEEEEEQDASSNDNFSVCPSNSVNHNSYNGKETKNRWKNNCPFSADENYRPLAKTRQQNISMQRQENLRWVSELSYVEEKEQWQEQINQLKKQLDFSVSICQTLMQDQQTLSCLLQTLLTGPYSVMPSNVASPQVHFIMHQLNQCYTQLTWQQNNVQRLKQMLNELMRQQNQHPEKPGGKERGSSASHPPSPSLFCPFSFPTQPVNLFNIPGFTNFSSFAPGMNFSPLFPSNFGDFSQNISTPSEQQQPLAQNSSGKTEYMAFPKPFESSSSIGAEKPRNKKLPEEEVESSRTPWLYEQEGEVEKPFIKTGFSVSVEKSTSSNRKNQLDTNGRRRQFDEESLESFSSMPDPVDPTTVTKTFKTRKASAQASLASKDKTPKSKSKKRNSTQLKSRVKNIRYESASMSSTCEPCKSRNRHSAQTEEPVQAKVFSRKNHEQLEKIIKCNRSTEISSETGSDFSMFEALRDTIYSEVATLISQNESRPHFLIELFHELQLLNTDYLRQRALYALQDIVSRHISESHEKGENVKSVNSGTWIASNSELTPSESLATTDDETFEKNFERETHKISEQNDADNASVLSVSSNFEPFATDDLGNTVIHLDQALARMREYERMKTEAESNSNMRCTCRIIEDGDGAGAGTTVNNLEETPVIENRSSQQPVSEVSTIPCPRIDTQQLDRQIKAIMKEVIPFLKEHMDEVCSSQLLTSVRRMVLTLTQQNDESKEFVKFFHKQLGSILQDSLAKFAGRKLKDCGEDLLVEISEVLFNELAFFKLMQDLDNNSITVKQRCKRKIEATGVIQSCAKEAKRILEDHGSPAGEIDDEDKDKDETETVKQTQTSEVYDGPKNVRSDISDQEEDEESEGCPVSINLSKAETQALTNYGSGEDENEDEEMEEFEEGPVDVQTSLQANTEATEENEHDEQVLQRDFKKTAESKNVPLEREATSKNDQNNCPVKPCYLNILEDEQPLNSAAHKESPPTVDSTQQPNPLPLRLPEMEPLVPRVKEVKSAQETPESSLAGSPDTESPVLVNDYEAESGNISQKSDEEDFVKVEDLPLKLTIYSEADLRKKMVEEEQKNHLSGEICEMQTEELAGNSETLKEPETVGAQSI

Row | Variant | effect of a mutation on the interaction
22 | F44L | with no effect

Variants of: B5
Conditions: with mcrs1_human MCRS1, Q96EZ8
Sequence of mcrs1_human MCRS1, Q96EZ8 (Q96EZ8 whole entry): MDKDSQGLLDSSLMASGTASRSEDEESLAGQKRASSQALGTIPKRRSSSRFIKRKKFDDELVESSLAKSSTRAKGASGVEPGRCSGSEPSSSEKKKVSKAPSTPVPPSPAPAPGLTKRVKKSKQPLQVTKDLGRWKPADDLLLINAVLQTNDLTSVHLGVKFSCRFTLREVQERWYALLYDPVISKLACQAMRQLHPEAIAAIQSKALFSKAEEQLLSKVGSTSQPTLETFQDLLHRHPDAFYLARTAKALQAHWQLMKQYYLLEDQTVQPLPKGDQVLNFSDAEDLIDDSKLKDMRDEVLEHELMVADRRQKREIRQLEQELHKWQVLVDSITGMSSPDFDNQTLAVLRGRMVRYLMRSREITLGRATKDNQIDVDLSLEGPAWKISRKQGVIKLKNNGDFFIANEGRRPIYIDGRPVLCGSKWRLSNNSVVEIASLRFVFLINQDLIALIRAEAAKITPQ

Row | Variant | effect of a mutation on the interaction
23 | F44L | with no effect

Variants of: B5
Conditions: with txlna_human TXLNA

Row | Variant | effect of a mutation on the interaction
24 | F44L | with no effect
